In patent US20090202574A1, “METHODS OF IMMUNE OR HAEMATOLOGICAL ENHANCEMENT, INHIBITING TUMOUR FORMATION OR GROWTH, AND TREATING OR PREVENTING CANCER” (priority 2004, published 2009):

Assays:
[1] = system: IL-18; test: IL-18 production by cultured intestinal loops; format: cell-based, mice; settings: Example 20; 400 and 800 μg/ml; 48 h; vs bovine serum albumin control protein
Method: Cytokine levels in the supernatants of homogenates of the small intestine were determined using a “sandwich” ELISA kit (Endogen, Woburn, Mass.). They were detected within standard curve ranges of 15-375 pg/ml for IL-4, 0-2450 pg/ml for IL-5, 15-1000 pg/ml for TNF-α, 0-3000 pg/ml for IFN-γ, 37-3000 pg/ml for IL-10, 31.3-2000 pg/ml for IL-12, and 31.3-2000 pg/ml for IL-18, respectively. Quantification of nitrite, indicative of NO production, was carried out by the Griess reaction (Sigma, USA). The results are expressed as the mean nitrite concentration (μM)±SD.
100% Fe-saturated Lf, natural Lf (less than 20% iron saturated), and bovine serum albumin control were added at 400 and 800 μg/ml to intestinal loops (2.5 cm segments of the small intestine) prepared from healthy 6 to 7 week-old female mice, which were kept in culture for 48 h. IL-18 levels released by the intestinal loops, and present in the supernatants of homogenates of the small intestine were determined using a “sandwich” ELISA kit as described above.

[2] = system: EL-4 tumours; test: EL-4 tumour growth in mice (s.c. flank tumour model); format: in vivo, C57BL/6 mice; settings: Example 1; oral diet; day 42; vs control diet
[3] = system: EL-4 target cells; test: Anti-tumour CTL and/or NK cell cytolytic activity of splenocytes against EL-4 target cells; settings: Example 1; splenocytes at day 42; vs control diet
Method: Splenocytes were harvested 28 days following tumour cell injection, as specified. They were incubated at 37° C. with EL-4 target cells in graded E:T ratios in 96-well round-bottom plates. After a 4-hour incubation, 50 μl of supernatant was collected, and lysis was measured using the Cyto Tox 96 Assay Kit (Promega, Madison, Wis., USA). Background controls for non-specific target and effector cell lysis were included. After background subtraction, percentage of cell lysis was calculated using the formula: 100× (experimental-spontaneous effector-spontaneous target/maximum target-spontaneous target).

[4] = system: IL-18; settings: WO 03/099323, cited from earlier work

B1: natural bLf: bovine lactoferrin extract from skim milk with natural levels of iron-saturation of approximately 5 to 15% (protein, UniProt P24627 20-708, looked up)
Lactotransferrin: APRKNVRWCTISQPEWFKCRRWQWRMKKLGAPSITCVRRAFALECIRAIAEKKADAVTLDGGMVFEAGRDPYKLRPVAAEIYGTKESPQTHYYAVAVVKKGSNFQLDQLQGRKSCHTGLGRSAGWIIPMGILRPYLSWTESLEPLQGAVAKFFSASCVPCIDRQAYPNLCQLCKGEGENQCACSSREPYFGYSGAFKCLQDGAGDVAFVKETTVFENLPEKADRDQYELLCLNNSRAPVDAFKECHLAQVPSHAVVARSVDGKEDLIWKLLSKAQEKFGKNKSRSFQLFGSPPGQRDLLFKDSALGFLRIPSKVDSALYLGSRYLTTLKNLRETAEEVKARYTRVVWCAVGPEEQKKCQQWSQQSGQNVTCATASTTDDCIVLVLKGEADALNLDGGYIYTAGKCGLVPVLAENRKSSKHSSLDCVLRPTEGYLAVAVVKKANEGLTWNSLKDKKSCHTAVDRTAGWNIPMGLIVNQTGSCAFDEFFSQSCAPGADPKSRLCALCAGDDQGLDKCVPNSKEKYYGYTGAFRCLAEDVGDVAFVKNDTVWENTNGESTADWAKNLNREDFRLLCLDGTRKPVTEAQSCHLAVAPNHAVVSRSDRAAHVKQVLLHQQALFGKNGKNCPDKFCLFKSETKNLLFNDNTECLAKLGGRPTYEEYLGTEYVTAIANLKKCSTSPLLEACAFLTR
For B1, the “increase in the levels of IL-18 in the intestine” value [1] was about 2 fold, the “inhibition in tumour size” value [2] was 11% and the “anti-tumour CTL and/or NK cell activity of splenocytes” value [3] was “slightly enhanced”.

B2: bovine lactoferrin: bovine lactoferrin as reported in WO 03/099323, compared with recombinant human lactoferrin (protein)
chain: APRKNVRWCTISQPEWFKCRRWQWRMKKLGAPSITCVRRAFALECIRAIAEKKADAVTLDGGMVFEAGRDPYKLRPVAAEIYGTKESPQTHYYAVAVVKKGSNFQLDQLQGRKSCHTGLGRSAGWIIPMGILRPYLSWTESLEPLQGAVAKFFSASCVPCIDRQAYPNLCQLCKGEGENQCACSSREPYFGYSGAFKCLQDGAGDVAFVKETTVFENLPEKADRDQYELLCLNNSRAPVDAFKECHLAQVPSHAVVARSVDGKEDLIWKLLSKAQEKFGKNKSRSFQLFGSPPGQRDLLFKDSALGFLRIPSKVDSALYLGSRYLTTLKNLRETAEEVKARYTRVVWCAVGPEEQKKCQQWSQQSGQNVTCATASTTDDCIVLVLKGEADALNLDGGYIYTAGKCGLVPVLAENRKSSKHSSLDCVLRPTEGYLAVAVVKKANEGLTWNSLKDKKSCHTAVDRTAGWNIPMGLIVNQTGSCAFDEFFSQSCAPGADPKSRLCALCAGDDQGLDKCVPNSKEKYYGYTGAFRCLAEDVGDVAFVKNDTVWENTNGESTADWAKNLNREDFRLLCLDGTRKPVTEAQSCHLAVAPNHAVVSRSDRAAHVKQVLLHQQALFGKNGKNCPDKFCLFKSETKNLLFNDNTECLAKLGGRPTYEEYLGTEYVTAIANLKKCSTSPLLEACAFLTR
modifications: Bovine Lactoferrin
notes: bovine lactoferrin as reported in WO 03/099323, compared with recombinant human lactoferrin
In the case of B2, the “serum levels of IL-18” value [4] is given as “did not increase” and the “intestinal IL-18 levels” value ([4]; compared with recombinant human lactoferrin) is given as “lesser increase”.
